Patent US10961303 (UNIVERSITEIT TWENTE, dated 2021)
Changes are numbered by the printed parent chain.

T1: BMP-6 (R&D systems cat. #507-BP/CF) (human, UniProt P22004 382-513, limits assumed)
T1 construct: Bought protein; also called recombinant human BMP-6
T1 sequence (looked up): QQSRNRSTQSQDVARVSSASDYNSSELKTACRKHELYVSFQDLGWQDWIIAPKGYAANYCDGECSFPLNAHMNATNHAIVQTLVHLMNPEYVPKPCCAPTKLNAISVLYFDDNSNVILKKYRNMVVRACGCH

T2: BMP-7 (R&D system cat. #354-BP/CF) (UniProt P18075 293-431)
T2 construct: Bought protein
T2 sequence (looked up): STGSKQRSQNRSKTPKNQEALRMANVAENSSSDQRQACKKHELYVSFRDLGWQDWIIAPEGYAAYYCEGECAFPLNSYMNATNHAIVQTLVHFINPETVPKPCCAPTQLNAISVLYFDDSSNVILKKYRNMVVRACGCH

B1: VHH-6-D6 (VHH)
VHH: EVQLVESGGGLVQAGGSLRLSCAASGRTFSSYGMGWFRQAPGKERDFVAAVSKSGGSTYYTASVKGRFTVSRDNAKNTVYLQMNSLKPEDTAVYYCAAGRWESGSRPGSTWYGERTYDYWGQGTQVTVSS
notes: Llama VHH selected against BMP6, made in E. coli periplasm; not shown: C-terminal Myc and His tags
B2: VHH-6-C1 (VHH)
VHH: B1 VHH with K53R, S57N, V70I, V79M, P107L
notes: Llama VHH selected against BMP6; not shown: C-terminal Myc and His tags
B3: VHH-6-C2 (VHH)
VHH: EVQLVESGGGLVQVGGSLRLSCAASGRTSSMYSMGWFRQAPGKEREFVAAIGWRFGEKYYTNSVKGRFTISRDGAENTNTVYLQMNSLKPDDTAVYYCAADPDDASQYYSDWMKGYGMDYWGKGTLVTVSS
notes: Llama VHH selected against BMP6, cross-reactive with BMP7; not shown: C-terminal Myc and His tags
B4: VHH-7-B8 (VHH)
VHH: EVQLVESGGGLVRAGGSLRLSCAASGRTFSGYVAGWFRQAPGKEREFVAAISWSGITYYGDSVKGRFTIARDNSKNGVYLQMNSLKPEDTAVYYCGAGKGYYKDYRGYDYWGQGTQVTVSS
notes: Llama VHH selected against BMP7; not shown: C-terminal Myc and His tags
B5: VHH-7-F11 (VHH)
VHH: B4 VHH with R13Q, I51S, A70S, S74A, G77T
notes: Llama VHH selected against BMP7; In SPR coupled to a CM5 chip by NHS chemistry; not shown: C-terminal Myc and His tags
B6: VHH-6-F2 (VHH)
VHH: EVQLVESGGGFVQAGGSLRLSCAASGSIFSINAMGWYRQAPGKQRELVAAITSGGSTNYADSVKGRFTISRDNAKNTLYLQMNSLKPEDTAVYYCSAVTILLTSGGWGSGNDYWGQGTQVTVSS
notes: as for B2
B7: Glyco-VHH (glycosylated VHH-7-G7 with an N-glycosylation site introduced in loop5, made in yeast) (VHH)
VHH: EVQLVESGGGLVQAGGSLRLSCAASGFTFDDYIIGWFRQAPGKEREGISCISSSDGSTYYADSVTGRFTISSDNANNTVYLQMNSLKPEDTAVYYCAAHAKWPYGTYSFRRCRRASFDSWGQGTQVTVSS
modifications: N-linked glycosyl group at the glycosylation site introduced in loop5 (position not given)
notes: Expressed in S. cerevisiae; also called mutated VHH
B8: VHH-6-H1 (VHH)
VHH: EVQLVESGGGLVQAGGSLRLSCAASGSIFSIVSMGWYRQVPGKQRELVAAITSAGSTNYGDSAKGRFTISRDNAKNTVYLQMNSLKPEDTAVYYCNSYGLGYPGDYGIDYWGKGTLVTVSS
notes: Llama VHH selected against BMP6; In SPR coupled to a CM5 chip by NHS chemistry; also called monohead VHH-6-H1; not shown: C-terminal Myc and His tags

Key:
[1] = molecular target: T1, BMP-6 (R&D systems cat. #507-BP/CF); assay: solid phase ELISA, wells coated with ~200 ng BMP6
Method: (§1) The indicated amounts of VHHs were incubated with wells coated with ~200 ng BMP6, 200 ng BMP7 or no BMPs (PBS). After several washes, bound VHHs were detected with a rabbit anti-VHH serum and a Donkey anti-rabbit antibody coupled to a peroxidase. The amount of converted OPD (Absorbance at 490 nm; A 490 nm) is proportional to the amount of bound VHHs.
(§2) MaxiSorb plate wells were coated overnight at 4° C., with the antigens in PBS. After blocking of the wells with 4% marvel in PBS, they were incubated with VHH or VHH-fused to M13 phages in the presence of 2% Marvel. The wells were washed with PBS-tween, and bound phages were detected by incubation with a mouse Monoclonal antibody against M13 phage coupled to HRP. Bound VHH were detected by incubation with a rabbit anti-VHH polyclonal serum and a goat anti-rabbit coupled to HRP. The amount of HRP was developed by the addition of OPD. The reactions were stopped by the addition of H_2SO_4 and measured at 490 nm.

[2] = molecular target: T2, BMP-7 (R&D system cat. #354-BP/CF); assay: solid phase ELISA, wells coated with 200 ng BMP7
Method: as §1, §2

[3] = molecular target: T1, BMP-6 (R&D systems cat. #507-BP/CF); assay: solid phase ELISA, wells coated with 200 ng BMP
Method: as §1, §2

[4] = molecular target: T1, BMP-6 (R&D systems cat. #507-BP/CF); assay: ELISA, 100 ng BMP6 coated, serial dilutions, read at 490 nm
Description: FIG. 7A-7B show the binding properties of the fusion proteins according to the invention which bind to a growth factor or growth factor inhibitor and to a biomaterial. Fusion proteins according to the invention are composed of the VHH according to the invention binding to a growth factor (indicated in the figure as "VHH-6-F2") and a VHH binding to a biomaterial (indicated in the figure as "MA"). […] The fusion proteins (indicated in the figure as "F") were constructed by genetic fusion of a VHH binding to BMP6 and a VHH binding to hydroxyapatite. To achieve binding to the growth factor BMP6 (FIG. 7A), 100 ng of BMP6 was coated into wells of a maxisorb plate. Serial dilutions of the VHH which binds to BMP6 (VHH-6-F2) and fusion proteins according to the invention (F) were added to the wells. Bound VHHs (VHH-6-F2) and fusion proteins (F) were detected with labelled polyclonal antibodies.

[5] = molecular target: T2, BMP-7 (R&D system cat. #354-BP/CF); assay: binding test to cognate antigen, method not described
[6] = molecular target: T1, BMP-6 (R&D systems cat. #507-BP/CF); assay: SPR, VHH coupled to CM5 chip, BMP injected
[7] = molecular target: T2, BMP-7 (R&D system cat. #354-BP/CF); assay: SPR, VHH coupled to CM5 chip, BMP injected

Binder	binding result [1]	binding result [2]	also measured
B1	binds	–	–
B2	binds	–	–
B3	binds	binds	–
B4	–	binds	–
B5	–	binds	binding result [3]: no binding
B6	–	–	binding result [4]: binds
B7	–	–	binding result [5]: binds
B8	–	–	binding result [6]: binds; binding result [7]: binds
